Results published in PMC10397247.

Tests used:
Assay in all cases: two-hybrid library CCNG1;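 further: natural log of median RNA to DNA barcode read ratio; higher means stronger binding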
4H1393-bN = target: T1, 4H1393-bN
T1 chain: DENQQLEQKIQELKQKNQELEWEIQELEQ

4H1449-bN = target: T2, 4H1449-bN
T2 chain: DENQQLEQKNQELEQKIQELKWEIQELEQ

4H1629-bN = target: T3, 4H1629-bN
T3 chain: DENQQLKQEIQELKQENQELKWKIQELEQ

4H1710-bN = target: T4, 4H1710-bN
T4 chain: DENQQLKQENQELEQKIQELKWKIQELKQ

4H1804-bN = target: T5, 4H1804-bN
T5 chain: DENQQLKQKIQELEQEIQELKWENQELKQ

4H1985-bN = target: T6, 4H1985-bN
T6 chain: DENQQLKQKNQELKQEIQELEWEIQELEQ

4H3129-bN = target: T7, 4H3129-bN
T7 chain: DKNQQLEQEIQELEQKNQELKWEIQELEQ

4H3172-bN = target: T8, 4H3172-bN
T8 chain: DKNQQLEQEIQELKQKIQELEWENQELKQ

4H3414-bN = target: T9, 4H3414-bN
T9 chain: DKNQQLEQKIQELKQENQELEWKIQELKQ

4H3631-bN = target: T10, 4H3631-bN
T10 chain: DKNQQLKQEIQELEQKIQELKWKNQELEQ

4H3638-bN = target: T11, 4H3638-bN
T11 chain: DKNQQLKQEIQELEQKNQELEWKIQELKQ

4H3817-bN = target: T12, 4H3817-bN
T12 chain: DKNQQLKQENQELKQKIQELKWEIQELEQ

4H3974-bN = target: T13, 4H3974-bN
T13 chain: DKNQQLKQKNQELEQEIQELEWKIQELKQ

4H570-bN = target: T14, 4H570-bN
T14 chain: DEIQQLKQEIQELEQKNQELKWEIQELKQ

4H584-bN = target: T15, 4H584-bN
T15 chain: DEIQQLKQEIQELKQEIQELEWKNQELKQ

4H619-bN = target: T16, 4H619-bN
T16 chain: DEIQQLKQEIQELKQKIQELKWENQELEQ

4H850-bA = target: T17, 4H850-bA
T17 chain: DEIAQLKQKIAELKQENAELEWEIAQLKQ

4H850-bN = target: T18, 4H850-bN
T18 chain: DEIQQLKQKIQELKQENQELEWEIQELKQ

4H906-bN = target: T19, 4H906-bN
T19 chain: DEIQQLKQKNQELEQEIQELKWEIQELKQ

4H1446-bN = target: T20, 4H1446-bN
T20 chain: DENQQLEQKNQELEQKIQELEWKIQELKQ

4H1828-bN = target: T21, 4H1828-bN
T21 chain: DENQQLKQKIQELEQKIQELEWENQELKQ

4H1845-bN = target: T22, 4H1845-bN
T22 chain: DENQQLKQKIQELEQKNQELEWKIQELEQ

4H2442-bN = target: T23, 4H2442-bN
T23 chain: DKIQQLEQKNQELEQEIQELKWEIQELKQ

4H2576-bN = target: T24, 4H2576-bN
T24 chain: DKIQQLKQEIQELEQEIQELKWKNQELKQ

4H2610-bN = target: T25, 4H2610-bN
T25 chain: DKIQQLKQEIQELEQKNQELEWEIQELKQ

4H2618-bN = target: T26, 4H2618-bN
T26 chain: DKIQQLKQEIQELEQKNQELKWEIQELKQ

4H2667-bN = target: T27, 4H2667-bN
T27 chain: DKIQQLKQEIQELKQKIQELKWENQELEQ

4H2697-bN = target: T28, 4H2697-bN
T28 chain: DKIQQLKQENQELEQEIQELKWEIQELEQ

4H2729-bN = target: T29, 4H2729-bN
T29 chain: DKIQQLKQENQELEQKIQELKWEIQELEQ

4H3112-bN = target: T30, 4H3112-bN
T30 chain: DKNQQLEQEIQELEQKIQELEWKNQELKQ

4H3185-bN = target: T31, 4H3185-bN
T31 chain: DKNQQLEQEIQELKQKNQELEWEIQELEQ

4H3189-bN = target: T32, 4H3189-bN
T32 chain: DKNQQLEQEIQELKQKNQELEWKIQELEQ

4H331-bN = target: T33, 4H331-bN
T33 chain: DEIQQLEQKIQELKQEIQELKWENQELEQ

4H3354-bN = target: T34, 4H3354-bN
T34 chain: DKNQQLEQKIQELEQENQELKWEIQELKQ

4H338-bN = target: T35, 4H338-bN
T35 chain: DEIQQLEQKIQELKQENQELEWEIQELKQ

4H3427-bN = target: T36, 4H3427-bN
T36 chain: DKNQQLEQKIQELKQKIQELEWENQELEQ

4H3606-bN = target: T37, 4H3606-bN
T37 chain: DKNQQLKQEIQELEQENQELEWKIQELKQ

4H370-bN = target: T38, 4H370-bN
T38 chain: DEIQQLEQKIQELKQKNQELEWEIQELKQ

4H3782-bN = target: T39, 4H3782-bN
T39 chain: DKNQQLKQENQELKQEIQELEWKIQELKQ

4H3843-bN = target: T40, 4H3843-bN
T40 chain: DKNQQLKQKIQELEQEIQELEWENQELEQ

4H3855-bN = target: T41, 4H3855-bN
T41 chain: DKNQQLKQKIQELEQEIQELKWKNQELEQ

4H4001-bN = target: T42, 4H4001-bN
T42 chain: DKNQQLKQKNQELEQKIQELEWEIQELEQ

4H454-bN = target: T43, 4H454-bN
T43 chain: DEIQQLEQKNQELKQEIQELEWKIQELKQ

4H462-bN = target: T44, 4H462-bN
T44 chain: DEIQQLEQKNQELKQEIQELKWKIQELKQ

4H568-bN = target: T45, 4H568-bN
T45 chain: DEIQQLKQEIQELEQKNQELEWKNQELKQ

4H607-bN = target: T46, 4H607-bN
T46 chain: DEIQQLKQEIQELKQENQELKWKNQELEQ

4H687-bN = target: T47, 4H687-bN
T47 chain: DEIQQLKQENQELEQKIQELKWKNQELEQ

4H717-bN = target: T48, 4H717-bN
T48 chain: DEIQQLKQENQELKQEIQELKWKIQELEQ

4H72-bN = target: T49, 4H72-bN
T49 chain: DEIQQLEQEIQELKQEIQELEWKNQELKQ

4H754-bN = target: T50, 4H754-bN
T50 chain: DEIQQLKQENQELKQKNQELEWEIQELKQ

4H797-bN = target: T51, 4H797-bN
T51 chain: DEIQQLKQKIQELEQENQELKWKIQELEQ

4H883-bN = target: T52, 4H883-bN
T52 chain: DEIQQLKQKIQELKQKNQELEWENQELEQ

4H908-bN = target: T53, 4H908-bN
T53 chain: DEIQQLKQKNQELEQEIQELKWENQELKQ

4H918-bN = target: T54, 4H918-bN
T54 chain: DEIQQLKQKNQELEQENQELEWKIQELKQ

4H953-bN = target: T55, 4H953-bN
T55 chain: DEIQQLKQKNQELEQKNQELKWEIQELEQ

4H967-bN = target: T56, 4H967-bN
T56 chain: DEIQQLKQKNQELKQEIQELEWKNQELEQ

With DENQQLEQKIQELKQKNQELEWEIQELEQ [4H1393-bN] the interaction score (4H1393-bN) was -1.33, the interaction score (4H1449-bN) was -0.996 and the interaction score (4H1629-bN) was -0.818. The interaction score (4H1710-bN) was -1.7, the interaction score (4H1804-bN) was -0.711 and the interaction score (4H1985-bN) was -1.58. The interaction score (4H3129-bN) was -0.903, the interaction score (4H3172-bN) was -1.92 and the interaction score (4H3414-bN) was -1.76. It also gave an interaction score (4H3631-bN) of -1.03, an interaction score (4H3638-bN) of 0.818 and an interaction score (4H3817-bN) of -1.41. For the same binder, the interaction score (4H3974-bN) was -0.815, the interaction score (4H570-bN) was -2.48 and the interaction score (4H584-bN) was -2.15. It also gave an interaction score (4H619-bN) of -0.97, an interaction score (4H850-bA) of -0.881 and an interaction score (4H850-bN) of -1.57. For the same binder, the interaction score (4H906-bN) was -0.497.

For DENQQLEQKNQELEQKIQELEWKIQELKQ [4H1446-bN], the interaction score (4H1446-bN) was 0.223, the interaction score (4H1828-bN) was 0.29 and the interaction score (4H1845-bN) was -1.65. For the same binder, the interaction score (4H2442-bN) was 0.215, the interaction score (4H2576-bN) was 1.07 and the interaction score (4H2610-bN) was 0.732. It also gave an interaction score (4H2618-bN) of -0.442, an interaction score (4H2667-bN) of 0.641 and an interaction score (4H2697-bN) of -0.277. For the same binder, the interaction score (4H2729-bN) was 0.529, the interaction score (4H3112-bN) was -0.24 and the interaction score (4H3185-bN) was 0.1. The interaction score (4H3189-bN) was 0.67, the interaction score (4H331-bN) was 1.22 and the interaction score (4H3354-bN) was -0.558. For the same binder, the interaction score (4H338-bN) was -0.426, the interaction score (4H3427-bN) was 0.852 and the interaction score (4H3606-bN) was -0.294. For the same binder, the interaction score (4H370-bN) was -0.536, the interaction score (4H3782-bN) was -0.169 and the interaction score (4H3843-bN) was 1.05. For the same binder, the interaction score (4H3855-bN) was 0.333, the interaction score (4H4001-bN) was 1.11 and the interaction score (4H454-bN) was 0.124. The interaction score (4H462-bN) was -1.74, the interaction score (4H568-bN) was -0.0813 and the interaction score (4H607-bN) was 0.502. The interaction score (4H687-bN) was -0.229, the interaction score (4H717-bN) was -0.982 and the interaction score (4H72-bN) was 0.548. The interaction score (4H754-bN) was -0.286, the interaction score (4H797-bN) was -0.329 and the interaction score (4H883-bN) was -0.0261. The interaction score (4H908-bN) was -0.254, the interaction score (4H918-bN) was 0.759 and the interaction score (4H953-bN) was -0.0145. The interaction score (4H967-bN) was -1.04.
